These results are taken from article PMC7027902.

Assay [1] concerns the target soluble biotinylated cognate peptide-MHC of the DMF5 TCR. Put plainly: BLI; Octet RED96; biotinylated pMHC (5 µg/mL) loaded on streptavidin tips; TCR in twofold serial dilutions from 200 nM, 900 s association, 600 s dissociation; PBS with kinetic buffer; 1:1 binding model. Background: Biolayer interferometry detects binding as a change in optical thickness at a sensor tip.

Assay [2] has as its target soluble biotinylated cognate peptide-MHC of the A6 TCR. The assay is described as above.

A word on the Kd: it is the concentration at which binding is half-saturated. High values mean weaker binding, low ones tighter binding. As a reminder, the koff is the rate constant with which the complex falls apart. High values mean a short-lived complex, low ones a long-lived complex. Turning to “wild-type DMF5 TCR (soluble α/β heterodimer)”, in assay [1], the dissociation constant (Kd) came out at 31.6 nM and the koff amounted to 7.4e-05 s⁻¹.

In assay [2], “wild-type high-affinity A6 TCR (soluble α/β heterodimer)” showed a Kd of 8.3 nM and a koff of 0.000416 s⁻¹.
